What was measured:
Conditions in all cases: ligand 5 micrograms per well; dilutions of initial fusion protein solution; FIG. 7
[1] = target: T1, amyloid-beta (Amyloid Beta (1-40)) (Homo sapiens, UniProt P05067); test: In vitro ligand binding assay (ELISA), immobilized amyloid-beta
T1 construct: Amyloid Beta (1-40) from Biosource; purchased Biosource
Experimental: (§1) For example, the fusion protein may be used in a binding assay to identify potential ligands that bind to the non-immunoglobulin protein. In one example embodiment of such a binding assay, a known ligand may coated onto a solid substrate (e.g., Maxisorb plates) at a biologically relevant concentration (e.g., about 5 micrograms per well), where each well contains a total volume of about 100 microliters (μL). The plates may be incubated at 4° C. overnight to allow the ligand to bind to the substrate. Alternatively, shorter incubation periods at higher temperature (e.g., room temperature) may be used. After a period of time to allow for the ligand to bind to the substrate, the assay wells may be aspirated and a blocking buffer (e.g., 1% BSA in 50 mM imidizole buffer, pH 7.2) may be added to block nonspecific binding. […] The fusion protein bound to the immobilized ligand may be detected in a variety of ways. […] The bound complex may be detected by adding a substrate for the secondary antibody complex, e.g., the alkaline phosphatase substrate, para-nitrophenylphosphate (PNPP), and measuring conversion of PNPP to para-nitrophenol (PNP) as an increase in absorbance at 405 nm. […] In the absence of ligand (i.e., coating with only BSA) there was no increase in absorbance. The binding assay of the present invention may be used to quantify ligand binding. […]

S100b = target: T2, S100b (Homo sapiens, UniProt P04271); test: In vitro ligand binding assay (ELISA), immobilized S100b
T2 sequence (P04271 1-92): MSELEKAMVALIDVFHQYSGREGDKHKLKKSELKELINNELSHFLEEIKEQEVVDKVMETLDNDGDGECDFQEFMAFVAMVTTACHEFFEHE
Experimental: as §1

amphoterin = target: T3, amphoterin (Homo sapiens, UniProt P09429); test: In vitro ligand binding assay (ELISA), immobilized amphoterin
T3 sequence (P09429 1-215): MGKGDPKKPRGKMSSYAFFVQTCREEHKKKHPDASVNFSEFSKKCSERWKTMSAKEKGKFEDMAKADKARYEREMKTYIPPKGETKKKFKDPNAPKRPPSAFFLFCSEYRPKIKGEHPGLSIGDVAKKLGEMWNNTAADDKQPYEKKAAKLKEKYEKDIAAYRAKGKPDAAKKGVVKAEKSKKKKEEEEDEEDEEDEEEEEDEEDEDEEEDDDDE
Experimental: as §1

T1 sequence (P05067 672-711 limits assumed): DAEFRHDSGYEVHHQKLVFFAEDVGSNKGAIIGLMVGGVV

B1: TTP-3000: RAGE fusion protein: V domain of human RAGE (amino acids 1-136) linked to hinge-less CH2 and CH3 of human IgG1; SEQ ID NO: 17/19 (protein)
chain 1: MAAGTAVGAWVLVLSLWGAVVGAQNITARIGEPLVLKCKGAPKKPPQRLEWKLNTGRTEAWKVLSPQGGGPWDSVARVLPNGSLFLPAVGIQDEGIFRCQAMNRNGKETKSNYRVRVYQIPGKPEIVDSASELTAGPSVFLFPPKPKDTLMISRTPEVTCVVVDVSHEDPEVKFNWYVDGVEVHNAKTKPREEQYNSTYRVVSVLTVLHQDWLNGKEYKCKVSNKALPAPIEKTISKAKGQPREPQVYTLPPSRDELTKNQVSLTCLVKGFYPSDIAVEWESNGQPENNYKTTPPVLDSDGSFFLYSKLTVDKSRWQQGNVFSCSVMHEALHNHYTQKSLSLSPGK
chain 2: ENITARIGEPLVLKCKGAPKKPPQRLEWKLNTGRTEAWKVLSPQGGGPWDSVARVLPNGSLFLPAVGIQDEGIFRCQAMNRNGKETKSNYRVRVYQIPGKPEIVDSASELTAGPSVFLFPPKPKDTLMISRTPEVTCVVVDVSHEDPEVKFNWYVDGVEVHNAKTKPREEQYNSTYRVVSVLTVLHQDWLNGKEYKCKVSNKALPAPIEKTISKAKGQPREPQVYTLPPSRDELTKNQVSLTCLVKGFYPSDIAVEWESNGQPENNYKTTPPVLDSDGSFFLYSKLTVDKSRWQQGNVFSCSVMHEALHNHYTQKSLSLSPGK
modifications: synthetic three domain RAGE-Fc IgG fusion protein; synthetic three domain RAGE-Fc IgG fusion protein having signal sequence removed
specifically interact: binding to immobilized amyloid-beta (increase in absorbance at 405 nm) [1] | binding to immobilized S100b (increase in absorbance at 405 nm) (S100b) | binding to immobilized amphoterin (increase in absorbance at 405 nm) (amphoterin)
